Target: Saccharomyces cerevisiae Asf1 (2–169) (Saccharomyces cerevisiae) (UniProt P32447)
Assay: MST

Saccharomyces cerevisiae Asf1 (2–169) (Saccharomyces cerevisiae), sequence (P32447 2-169): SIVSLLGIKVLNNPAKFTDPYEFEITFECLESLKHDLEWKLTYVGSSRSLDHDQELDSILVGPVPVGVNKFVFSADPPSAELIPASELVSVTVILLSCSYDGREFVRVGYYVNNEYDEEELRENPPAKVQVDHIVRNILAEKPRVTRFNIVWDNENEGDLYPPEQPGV
Rtt109−Vps75_(2) complex, sequence (Q07794 whole entry): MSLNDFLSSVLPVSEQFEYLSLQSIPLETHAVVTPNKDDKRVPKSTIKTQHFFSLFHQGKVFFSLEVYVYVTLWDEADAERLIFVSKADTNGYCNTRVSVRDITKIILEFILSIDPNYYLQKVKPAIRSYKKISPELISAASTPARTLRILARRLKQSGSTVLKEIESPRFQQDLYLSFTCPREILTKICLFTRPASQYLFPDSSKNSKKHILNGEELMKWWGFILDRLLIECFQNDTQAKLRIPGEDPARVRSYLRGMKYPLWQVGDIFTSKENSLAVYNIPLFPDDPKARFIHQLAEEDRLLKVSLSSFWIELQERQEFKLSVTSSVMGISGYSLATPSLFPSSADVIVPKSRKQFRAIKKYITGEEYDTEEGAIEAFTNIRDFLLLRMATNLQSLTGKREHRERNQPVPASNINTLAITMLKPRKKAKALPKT
Rtt109−Vps75_(2) complex, sequence (P53853 whole entry): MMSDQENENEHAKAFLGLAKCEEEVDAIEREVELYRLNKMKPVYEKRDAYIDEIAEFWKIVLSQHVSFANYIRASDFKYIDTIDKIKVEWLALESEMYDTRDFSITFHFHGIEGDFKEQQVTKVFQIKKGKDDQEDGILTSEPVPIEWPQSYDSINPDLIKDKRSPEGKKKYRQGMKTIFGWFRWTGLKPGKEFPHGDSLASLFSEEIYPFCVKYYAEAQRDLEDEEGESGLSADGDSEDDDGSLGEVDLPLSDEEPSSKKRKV
full-length Saccharomyces cerevisiae Rtt109, sequence (Q07794 whole entry): as the sequence (Q07794 whole entry) above

Row | Kd | Substance
1 | 42.7 µM | Rtt109−Vps75_(2) complex (from UniProt Q07794;P53853)
2 | 7.63 µM | full-length Saccharomyces cerevisiae Rtt109 (from UniProt Q07794 1-436) (enzyme)

— article PMC5861439
